{"source": "paper PMC11580873", "target": "V5-FoTO1 (Taxus media)", "experiment": "co-IP"}
{"substance": "T5αH-HA (from UniProt Q6WG30 1-499) (enzyme)", "values": [{"measurement": "fold change of the co-IP signal with 400 uM taxadiene in the lysate", "result": 4, "unit": "fold"}]}
